Here are results for one molecule from article PMC2114603.

For this assay, the target named is lymphoma 4.1-like protein (68/65-kD phosphoprotein doublet) of mouse T-lymphoma cells (mouse (endogenous in BW 5147)). The assay is described as follows: co-sedimentation. The following applies: scale: gp 25 per 68/65-kD protein.
lymphoma 4.1-like protein (68/65-kD phosphoprotein doublet) of mouse T-lymphoma cells (mouse (endogenous in BW 5147)), sequence (P48193 whole entry): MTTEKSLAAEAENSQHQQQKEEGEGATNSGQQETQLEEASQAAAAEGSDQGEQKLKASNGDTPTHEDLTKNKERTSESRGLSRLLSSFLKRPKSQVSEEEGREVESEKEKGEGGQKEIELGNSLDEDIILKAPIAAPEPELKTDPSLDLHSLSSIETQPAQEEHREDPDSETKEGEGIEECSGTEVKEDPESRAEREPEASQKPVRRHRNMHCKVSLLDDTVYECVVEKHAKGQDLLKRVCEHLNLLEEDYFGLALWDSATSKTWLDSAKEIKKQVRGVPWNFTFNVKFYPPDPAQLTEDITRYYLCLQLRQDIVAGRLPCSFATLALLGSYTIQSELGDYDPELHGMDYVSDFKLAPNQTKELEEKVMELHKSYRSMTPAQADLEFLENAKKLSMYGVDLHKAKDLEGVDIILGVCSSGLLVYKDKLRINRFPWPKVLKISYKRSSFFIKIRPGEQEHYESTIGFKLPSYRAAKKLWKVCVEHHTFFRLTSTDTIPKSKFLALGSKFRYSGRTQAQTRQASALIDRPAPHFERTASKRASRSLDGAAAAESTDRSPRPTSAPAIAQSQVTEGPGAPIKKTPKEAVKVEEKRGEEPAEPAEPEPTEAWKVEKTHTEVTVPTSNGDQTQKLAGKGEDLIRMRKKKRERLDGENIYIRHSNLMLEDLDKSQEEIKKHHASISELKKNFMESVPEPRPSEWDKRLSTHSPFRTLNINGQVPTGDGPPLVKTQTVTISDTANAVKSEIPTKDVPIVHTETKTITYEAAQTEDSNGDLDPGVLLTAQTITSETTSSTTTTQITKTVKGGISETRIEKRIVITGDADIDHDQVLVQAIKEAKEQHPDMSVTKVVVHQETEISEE

B1: Thy-1 glycoprotein (gp 25) of mouse T-lymphoma cells (natural protein)
chain: QKVTSLTACLVNQNLRLDCRHENNTKDNSIQHEFSLTREKRKHVLSGTLGIPEHTYRSRVTLSNQPYIKVLTLANFTTKDEGDYFCELQVSGANPMSSNKSISVYRDKLVKC
modifications: glycoprotein ([3H]glucosamine-labelled); 125I-labelled or unlabelled
B1: the stoichiometry N (in general, a count of units in the complex or per binding partner) is 4.
